Read-outs that look alike come from different tables or passages of the source. Where no end group is shown, it is not given here.
Key:
Assay type in all cases: biochemical
FIH [1] = target: T1, FIH (Homo sapiens, UniProt Q9NWT6); assay: FIH 2-OG decarboxylation (CO2 release) assay with HIF-1α polypeptide substrates; settings: for % activity relative to 775-826 peptide: same conditions; for % activity relative to 775-826 peptide / CO2 released: polypeptide as FIH substrate; for CO2 released: standard assay conditions
T1 construct: His6 (N, cleaved yes); made in house; host or cells: Escherichia coli BL21(DE3)
Description: (§1) FIH assays—Assays for decarboxylation of 2-OG were performed using radiolabelled 2-OG (New England Nuclear) as reported in Epstein et al supra. Incubations contained ascorbate, DTT, catalase, 2-OG, FIH, and substrate in 50 mM Tris/HCl pH7.4, and were carried out at 37° C. typically for 20 minutes. HPLC separations were achieved on a Phenomenex Jupiter C4 (10 cm×4.6 mm) column by using of a linear gradient of CH3CN in 0.1% TFA. For inhibition and metal dependence assays, GST HIF-1α 775-826 was used as substrate at 30 μM, and with iron (II) ammonium sulfate, cobalt (II) chloride, zinc (II) chloride, and N-oxaloylglycine at final concentrations of 0, 2, 10, 40, 80 and 200 μM. Assays under an atmosphere of ^18O2 were performed as reported in McNeill et al, Bioorg Med Chem Lett, 2002 12, 1547-1550.

FIH [2] = target: T1, FIH; assay: FIH inhibition and metal dependence assays (2-OG decarboxylation, GST HIF-1α 775-826 as substrate)
Description: as §1
Further characterization of FIH activity—To explore the mechanism of FIH and its relationship to the characteristics of in vivo HIF activation, in vitro analyses of FIH using the purified recombinant protein were performed.

FIH [3] = target: T1, FIH; assay: GST pulldown assay: capture of 35S-labelled p300 CH1 by HIF-1α CAD after exposure to FIH; settings: for ability to capture CH1 after pre-incubation with FIH: GST-fused polypeptide, 35S-labelled CH1
Description: N-oxaloylglycine was added to 5 mM when required. Glutathione Sepharose beads were added for 40 minutes at 25° C. and then washed with 50 mM Tris/HCl pH 7.4, 0.5% NP40, 150 mM NaCl and 1 mM DTT. […] Binding was performed for 1 hour at 25° C. and the beads were then washed in the same buffer. The bound proteins were eluted in SDS running buffer and analyzed by SDS-PAGE and autoradiography.

[4] = in vitro kinetic assays, recombinant FIH, GST HIF-1α 775-826 at 30 μM, read-out: IC50

T1 sequence (Q9NWT6 with tags, fused parts or gaps): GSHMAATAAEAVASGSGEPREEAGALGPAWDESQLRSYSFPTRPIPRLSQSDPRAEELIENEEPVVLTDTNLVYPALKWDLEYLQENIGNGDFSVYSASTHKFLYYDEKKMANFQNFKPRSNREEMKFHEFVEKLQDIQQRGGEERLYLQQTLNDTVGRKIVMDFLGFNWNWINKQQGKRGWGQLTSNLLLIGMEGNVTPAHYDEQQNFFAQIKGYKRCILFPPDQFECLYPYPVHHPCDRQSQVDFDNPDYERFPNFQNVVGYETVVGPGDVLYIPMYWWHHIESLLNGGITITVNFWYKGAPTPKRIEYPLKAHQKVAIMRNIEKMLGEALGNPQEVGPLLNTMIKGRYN

| Molecule | % activity relative to 775-826 peptide (FIH [1]) | CO2 released (FIH [1]) | other results |
| --- | --- | --- | --- |
| 2-oxoglutarate [2-OG, reference compound] |  |  | Km (FIH [1]; preliminary kinetic parameter, with free HIF-1α 775-826 peptide, 2-OG turnover assay, read-out: Km(2-OG)): 10 µM |
| [Cl-].[Cl-].[Co+2] [Cobalt (II), cobalt (II) chloride] |  |  | IC50 (FIH [2]; [4]): 10 µM |
| O=C(O)CNC(=O)C(=O)O [N-oxaloylglycine, reference compound] |  |  | IC50 (FIH [2]): 25 µM; inhibition of FIH effect on CH1 capture by HIF-1α CAD (FIH [3]; N-oxaloylglycine 5 mM in FIH/HIF-1α CAD reaction step): inhibited the effect of FIH |
| O=S(=O)([O-])[O-].O=S(=O)([O-])[O-].[Fe+2].[NH4+].[NH4+] [iron (II), iron (II) ammonium sulfate] |  |  | effect of exogenous metal on FIH activity (FIH [2]; added to purified FIH/HIF-1α CAD assay): no further increase in activity |
| [Cl-].[Cl-].[Zn+2] [zinc (II), zinc (II) chloride] |  |  | IC50 (FIH [2]; [4]): 10 µM |
| GST HIF-1α 577-826: GST tagged fusion of human HIF-1α residues 577-826 | 67% | 0.81 nmol |  |
| GST HIF-1α 775-826 N803A: GST HIF-1α 775-826 with Asn-803 mutated to alanine (PSDLACRLLGQSMDESGLPQLTSYDCEVAAPIQGSRNLLQGEELLRALDQVN; cysteine pairing not given here; also: GST fusion, not in chain) | <0.01% | <0.001 nmol | ability to capture CH1 after pre-incubation with FIH (FIH [3]): unaffected |
| GST HIF-1α 775-826 N803D: GST HIF-1α 775-826 with Asn-803 mutated to aspartate (PSDLACRLLGQSMDESGLPQLTSYDCEVDAPIQGSRNLLQGEELLRALDQVN; cysteine pairing not given here; also: GST fusion, not in chain; UniProt Q16665 775-826, looked up, variant N803D) | 7% | 0.22 nmol | 2-OG turnover relative to the analogous Asn-803 substrate (FIH [1]; GST HIF-1α 775-826 mutant): ≤ 7% |
| GST HIF-1α 775-826 N803E: GST HIF-1α 775-826 with Asn-803 mutated to glutamate (PSDLACRLLGQSMDESGLPQLTSYDCEVEAPIQGSRNLLQGEELLRALDQVN; cysteine pairing not given here; also: GST fusion, not in chain; UniProt Q16665 775-826, looked up, variant N803E) | <0.01% | <0.001 nmol |  |
| GST HIF-1α 775-826 N803Q: GST HIF-1α 775-826 with Asn-803 mutated to glutamine (PSDLACRLLGQSMDESGLPQLTSYDCEVQAPIQGSRNLLQGEELLRALDQVN; cysteine pairing not given here; also: GST fusion, not in chain; UniProt Q16665 775-826, looked up, variant N803Q) | <0.01% | <0.001 nmol |  |
| GST HIF-1α 775-826: N-terminal glutathione S-transferase tagged fusion of human HIF-1α residues 775-826 (CAD) | 96% | 2.7 nmol | ability to capture CH1 after pre-incubation with FIH (FIH [3]): strikingly reduced |
| HIF-1α 775-826: free polypeptide encompassing the human HIF-1α CAD (residues 775-826), GST tag removed | 100% | 2.8 nmol | Vmax (FIH [1]; preliminary kinetic parameter, 2-OG turnover assay): 0.3 µmol/min/mg; Km (FIH [1]; preliminary kinetic parameter, 2-OG turnover assay, read-out: Km(peptide)): 10 µM |
| His6-HIF-1α 344-503: His6-tagged section of HIF-1α, residues 344-503 (protein, left off: small tags and cut ends) GIIQHDLIFSLQQTECVLKPVESSDMKMTQLFTKVESEDTSSLFDKLKKEPDALTLLAPAAGDTIISLDFGSNDTETDDQQLEEVPLYNDVMLPSPNEKLQNINLAMSPLPTAETPKPLRSSADPALNQEVALKLEPNPESLELSFTMPQIQDQTPSPSD | <0.01% | <0.001 nmol |  |
| His6-HIF-1α 530-698: His6-tagged section of HIF-1α, residues 530-698 (protein, left off: small tags and cut ends) EFKLELVEKLFAEDTEAKNPFSTQDTDLDLEMLAPYIPMDDDFQLRSFDQLSPLESSSASPESASPQSTVTVFQQTQIQEPTANATTTTATTDELKTVTKDRMEDIKILIASPSPTHIHKETTSATSSPYRDTQSRTASPNRAGKGVIEQTEKSHPRSPNVLSVALSQR | <0.01% | <0.001 nmol |  |
| GST HIF-1α 530-652: GST tagged fusion of human HIF-1α residues 530-652 (protein, left off: a dimerising Fc or GST) EFKLELVEKLFAEDTEAKNPFSTQDTDLDLEMLAPYIPMDDDFQLRSFDQLSPLESSSASPESASPQSTVTVFQQTQIQEPTANATTTTATTDELKTVTKDRMEDIKILIASPSPTHIHKETT | 1.8% | 0.05 nmol |  |

From patent US20090286858A1, “ASSAYS FOR MODULATORS OF ASPARAGINYL HYDROXYLASE” (ISIS INNOVATION LIMITED, priority 2002, published 2009)
